Measured values as given in patent publication US10500249B2, “Compositions and methods for preventing or treating diseases, conditions, or processes characterized by aberrant fibroblast proliferation and extracellular matrix deposition” (MOERAE MATRIX, INC., priority 2014, dated 2019).

What was measured:
Assay in all cases: Kinase Profiling Assay
Assay type in all cases: biochemical
Conditions in all cases: 100 μM
CDK5/p25 (h) = target: T1, CDK5/p25 (h) (Homo sapiens, UniProt Q00535)
T1 construct: purchased Millipore
Outline: (§1)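 Duplicate wells; [radiolabeled] ATP phosphate onto cationic substrate; filter capture (negatively charged membrane); scintillation count; % of 100% activity control. Selectivity screen of MK2 peptide inhibitors, 266 human kinases.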

CDK7/cyclinH/MAT1 (h) = target: T2, CDK7/cyclinH/MAT1 (h) (Homo sapiens, UniProt P50613)
T2 construct: purchased Millipore
T2 sequence (P50613 whole entry): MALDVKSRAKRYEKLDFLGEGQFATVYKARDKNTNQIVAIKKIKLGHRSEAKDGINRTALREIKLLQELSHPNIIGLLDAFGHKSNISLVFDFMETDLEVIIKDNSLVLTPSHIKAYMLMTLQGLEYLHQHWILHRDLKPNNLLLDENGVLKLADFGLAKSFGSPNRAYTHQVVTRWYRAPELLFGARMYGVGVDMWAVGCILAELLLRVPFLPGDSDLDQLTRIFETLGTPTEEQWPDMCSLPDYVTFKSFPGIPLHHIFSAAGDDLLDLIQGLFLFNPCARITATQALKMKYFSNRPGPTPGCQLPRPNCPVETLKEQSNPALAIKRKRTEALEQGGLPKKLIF
T2 sequence (P51946 whole entry partner): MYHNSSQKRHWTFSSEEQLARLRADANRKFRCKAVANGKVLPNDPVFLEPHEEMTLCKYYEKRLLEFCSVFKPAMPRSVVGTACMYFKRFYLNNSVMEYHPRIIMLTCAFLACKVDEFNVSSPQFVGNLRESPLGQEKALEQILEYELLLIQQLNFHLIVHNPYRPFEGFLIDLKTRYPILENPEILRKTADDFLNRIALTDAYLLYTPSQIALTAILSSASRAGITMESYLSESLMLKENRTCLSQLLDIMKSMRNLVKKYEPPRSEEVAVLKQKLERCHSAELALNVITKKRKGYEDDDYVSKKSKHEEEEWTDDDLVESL
T2 sequence (P51948 whole entry partner): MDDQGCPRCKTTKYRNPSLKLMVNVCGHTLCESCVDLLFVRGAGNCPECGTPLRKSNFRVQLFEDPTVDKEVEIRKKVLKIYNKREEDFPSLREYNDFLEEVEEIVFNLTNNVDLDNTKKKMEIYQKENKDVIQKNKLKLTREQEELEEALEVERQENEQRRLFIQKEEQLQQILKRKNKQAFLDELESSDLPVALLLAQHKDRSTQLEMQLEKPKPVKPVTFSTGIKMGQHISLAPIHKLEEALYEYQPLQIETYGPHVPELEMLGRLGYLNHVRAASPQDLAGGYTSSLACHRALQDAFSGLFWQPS
Outline: as §1

CDK9/cyclin T1 (h) = target: T3, CDK9/cyclin T1 (h) (Homo sapiens, UniProt P50750)
T3 construct: purchased Millipore
T3 sequence (P50750 whole entry): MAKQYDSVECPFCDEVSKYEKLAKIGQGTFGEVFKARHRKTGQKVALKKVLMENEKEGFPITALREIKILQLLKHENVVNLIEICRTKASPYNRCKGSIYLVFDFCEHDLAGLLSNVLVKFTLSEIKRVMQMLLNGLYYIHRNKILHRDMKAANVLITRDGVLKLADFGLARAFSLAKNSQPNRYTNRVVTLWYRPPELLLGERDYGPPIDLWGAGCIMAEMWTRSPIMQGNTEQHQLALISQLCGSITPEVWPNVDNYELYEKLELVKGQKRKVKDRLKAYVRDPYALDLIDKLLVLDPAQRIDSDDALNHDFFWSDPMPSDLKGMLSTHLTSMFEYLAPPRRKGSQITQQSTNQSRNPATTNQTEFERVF
T3 sequence (O60563 whole entry partner): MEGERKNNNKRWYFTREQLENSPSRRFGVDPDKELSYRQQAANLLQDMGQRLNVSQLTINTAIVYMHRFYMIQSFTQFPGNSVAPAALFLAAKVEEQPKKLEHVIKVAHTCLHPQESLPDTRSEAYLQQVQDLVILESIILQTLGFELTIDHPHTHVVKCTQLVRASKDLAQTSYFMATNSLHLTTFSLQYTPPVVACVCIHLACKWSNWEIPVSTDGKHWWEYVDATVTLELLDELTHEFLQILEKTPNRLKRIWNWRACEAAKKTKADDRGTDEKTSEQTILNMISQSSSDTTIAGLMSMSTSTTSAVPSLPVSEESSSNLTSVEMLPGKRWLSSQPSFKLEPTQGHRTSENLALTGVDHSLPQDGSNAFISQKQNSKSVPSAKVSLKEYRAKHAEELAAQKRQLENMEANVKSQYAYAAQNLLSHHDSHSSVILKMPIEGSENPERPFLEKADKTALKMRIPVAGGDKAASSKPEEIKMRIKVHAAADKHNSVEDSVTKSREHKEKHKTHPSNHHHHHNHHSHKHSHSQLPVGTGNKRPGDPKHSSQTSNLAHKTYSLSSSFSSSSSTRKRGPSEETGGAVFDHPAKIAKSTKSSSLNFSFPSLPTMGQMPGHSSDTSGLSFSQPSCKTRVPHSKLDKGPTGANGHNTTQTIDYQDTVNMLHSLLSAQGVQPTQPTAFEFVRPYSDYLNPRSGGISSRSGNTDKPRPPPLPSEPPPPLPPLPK
Outline: as §1

CaMKIIβ (h) = target: T4, CaMKIIβ (h) (Homo sapiens, UniProt Q13554)
T4 construct: purchased Millipore
Outline: as §1

EGFR(T790M, L858R) (h) = target: T5, EGFR(T790M, L858R) (h) (Homo sapiens, UniProt P00533, L858R/T790M)
T5 construct: purchased Millipore
Outline: as §1

FGFR1 (h) = FGFR1 (h) (Homo sapiens, UniProt P11362)
Chain of FGFR1 (h) (P11362 22-822): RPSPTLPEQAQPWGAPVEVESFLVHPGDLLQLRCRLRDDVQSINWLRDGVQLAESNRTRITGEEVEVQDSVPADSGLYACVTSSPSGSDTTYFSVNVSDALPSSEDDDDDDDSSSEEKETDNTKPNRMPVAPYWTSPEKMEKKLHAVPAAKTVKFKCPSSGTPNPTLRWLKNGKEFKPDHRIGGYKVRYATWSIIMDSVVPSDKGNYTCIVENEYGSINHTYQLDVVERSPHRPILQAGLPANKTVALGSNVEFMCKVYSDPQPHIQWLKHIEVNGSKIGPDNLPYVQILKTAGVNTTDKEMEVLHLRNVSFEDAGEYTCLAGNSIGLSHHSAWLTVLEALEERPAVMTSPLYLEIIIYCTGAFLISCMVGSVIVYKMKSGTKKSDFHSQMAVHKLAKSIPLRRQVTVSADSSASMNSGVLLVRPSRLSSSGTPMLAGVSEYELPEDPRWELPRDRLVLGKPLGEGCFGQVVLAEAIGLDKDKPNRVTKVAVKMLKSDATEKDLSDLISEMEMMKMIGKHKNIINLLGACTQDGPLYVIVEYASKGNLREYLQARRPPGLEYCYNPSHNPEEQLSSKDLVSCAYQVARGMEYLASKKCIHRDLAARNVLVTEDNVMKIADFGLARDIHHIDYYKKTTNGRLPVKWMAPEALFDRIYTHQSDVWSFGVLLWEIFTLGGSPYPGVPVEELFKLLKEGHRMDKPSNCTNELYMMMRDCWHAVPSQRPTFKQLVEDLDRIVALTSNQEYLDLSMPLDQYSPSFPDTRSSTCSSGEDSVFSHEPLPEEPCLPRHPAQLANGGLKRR
Outline: as §1

FGFR1(V561M) (h) = FGFR1(V561M) (h) (Homo sapiens, UniProt P11362, V561M)
Chain of FGFR1(V561M) (h) (P11362 22-822 V561M): as the sequence (P11362 22-822) above, with V540M counted along it
Outline: as §1

Flt3 (h) = Flt3 (h) (Homo sapiens, UniProt P36888)
Outline: as §1

IR (h), activated = target: T6, IR (h), activated (Homo sapiens, UniProt P06213)
T6 construct: purchased Millipore
Outline: as §1

MARK1 (h) = MARK1 (h) (Homo sapiens, UniProt Q9P0L2)
Chain of MARK1 (h) (Q9P0L2 whole entry): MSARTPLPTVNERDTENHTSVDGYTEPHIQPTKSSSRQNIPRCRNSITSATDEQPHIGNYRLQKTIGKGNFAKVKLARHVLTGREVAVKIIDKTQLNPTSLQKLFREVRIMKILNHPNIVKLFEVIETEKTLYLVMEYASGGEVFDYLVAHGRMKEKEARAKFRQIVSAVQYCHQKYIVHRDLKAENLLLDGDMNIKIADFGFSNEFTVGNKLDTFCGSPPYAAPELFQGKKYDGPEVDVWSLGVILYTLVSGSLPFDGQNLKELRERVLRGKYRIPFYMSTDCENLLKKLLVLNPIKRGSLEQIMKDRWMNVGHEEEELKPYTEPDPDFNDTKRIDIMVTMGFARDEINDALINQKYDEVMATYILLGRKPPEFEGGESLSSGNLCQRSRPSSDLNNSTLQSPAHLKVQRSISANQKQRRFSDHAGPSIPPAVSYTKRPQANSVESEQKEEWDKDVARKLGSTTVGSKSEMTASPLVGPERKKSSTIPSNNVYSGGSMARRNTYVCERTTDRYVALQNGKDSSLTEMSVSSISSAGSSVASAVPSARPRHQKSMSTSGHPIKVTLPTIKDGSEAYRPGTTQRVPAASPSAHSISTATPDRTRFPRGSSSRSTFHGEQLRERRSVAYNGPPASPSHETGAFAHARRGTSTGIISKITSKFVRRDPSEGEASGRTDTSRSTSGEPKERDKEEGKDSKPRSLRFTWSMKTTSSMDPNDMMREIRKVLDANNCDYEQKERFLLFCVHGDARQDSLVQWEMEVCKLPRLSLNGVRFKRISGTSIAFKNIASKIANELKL
Outline: as §1

MuSK (h) = target: T7, MuSK (h) (Homo sapiens, UniProt O15146)
T7 construct: purchased Millipore
T7 sequence (O15146 24-869): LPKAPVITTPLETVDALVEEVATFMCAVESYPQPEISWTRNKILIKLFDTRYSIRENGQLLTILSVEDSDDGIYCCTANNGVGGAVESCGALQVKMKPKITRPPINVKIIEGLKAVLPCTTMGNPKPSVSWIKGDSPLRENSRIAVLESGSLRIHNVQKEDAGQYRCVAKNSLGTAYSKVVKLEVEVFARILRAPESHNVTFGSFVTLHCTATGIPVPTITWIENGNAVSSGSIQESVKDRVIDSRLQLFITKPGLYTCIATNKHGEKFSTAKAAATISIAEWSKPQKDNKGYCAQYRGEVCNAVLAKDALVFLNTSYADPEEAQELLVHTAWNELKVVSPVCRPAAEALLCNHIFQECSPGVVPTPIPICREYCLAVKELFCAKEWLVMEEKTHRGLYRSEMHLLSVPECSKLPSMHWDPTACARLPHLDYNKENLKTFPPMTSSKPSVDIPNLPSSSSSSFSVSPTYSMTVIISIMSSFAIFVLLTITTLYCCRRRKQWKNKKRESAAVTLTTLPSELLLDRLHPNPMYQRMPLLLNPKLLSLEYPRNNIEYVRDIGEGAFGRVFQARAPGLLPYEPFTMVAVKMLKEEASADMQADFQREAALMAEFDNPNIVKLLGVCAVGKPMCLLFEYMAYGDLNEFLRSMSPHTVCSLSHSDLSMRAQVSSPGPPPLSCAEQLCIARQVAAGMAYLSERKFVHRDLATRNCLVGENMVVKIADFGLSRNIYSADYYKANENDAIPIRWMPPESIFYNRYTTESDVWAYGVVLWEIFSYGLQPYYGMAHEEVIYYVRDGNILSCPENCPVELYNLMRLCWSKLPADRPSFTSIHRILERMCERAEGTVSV
Outline: as §1

Rsk2 (h) = Rsk2 (h) (Homo sapiens, UniProt P51812)
Outline: as §1

Rsk4 (h) = Rsk4 (h) (Homo sapiens, UniProt Q9UK32)
Chain of Rsk4 (h) (Q9UK32 whole entry): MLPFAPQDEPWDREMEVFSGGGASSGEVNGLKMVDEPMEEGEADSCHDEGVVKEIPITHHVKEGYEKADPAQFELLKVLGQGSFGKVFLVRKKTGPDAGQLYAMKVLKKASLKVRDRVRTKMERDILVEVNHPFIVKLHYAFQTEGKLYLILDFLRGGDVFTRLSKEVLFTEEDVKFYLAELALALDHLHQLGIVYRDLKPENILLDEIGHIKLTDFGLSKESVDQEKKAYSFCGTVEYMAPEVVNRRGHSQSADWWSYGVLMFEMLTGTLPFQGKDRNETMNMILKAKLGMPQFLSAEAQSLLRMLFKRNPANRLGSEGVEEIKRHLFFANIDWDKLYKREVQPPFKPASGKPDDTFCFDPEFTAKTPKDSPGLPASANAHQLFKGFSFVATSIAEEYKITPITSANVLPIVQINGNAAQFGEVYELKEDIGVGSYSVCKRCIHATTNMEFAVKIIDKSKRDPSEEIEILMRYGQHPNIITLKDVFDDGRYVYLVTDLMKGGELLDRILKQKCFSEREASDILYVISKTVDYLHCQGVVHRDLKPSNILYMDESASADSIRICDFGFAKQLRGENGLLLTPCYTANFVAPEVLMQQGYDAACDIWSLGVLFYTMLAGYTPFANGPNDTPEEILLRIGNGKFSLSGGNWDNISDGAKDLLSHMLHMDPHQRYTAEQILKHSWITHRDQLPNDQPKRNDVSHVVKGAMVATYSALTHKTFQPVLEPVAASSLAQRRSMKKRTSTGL
Outline: as §1

VRK2 (h) = VRK2 (h) (Homo sapiens, UniProt Q86Y07)
Chain of VRK2 (h) (Q86Y07 whole entry): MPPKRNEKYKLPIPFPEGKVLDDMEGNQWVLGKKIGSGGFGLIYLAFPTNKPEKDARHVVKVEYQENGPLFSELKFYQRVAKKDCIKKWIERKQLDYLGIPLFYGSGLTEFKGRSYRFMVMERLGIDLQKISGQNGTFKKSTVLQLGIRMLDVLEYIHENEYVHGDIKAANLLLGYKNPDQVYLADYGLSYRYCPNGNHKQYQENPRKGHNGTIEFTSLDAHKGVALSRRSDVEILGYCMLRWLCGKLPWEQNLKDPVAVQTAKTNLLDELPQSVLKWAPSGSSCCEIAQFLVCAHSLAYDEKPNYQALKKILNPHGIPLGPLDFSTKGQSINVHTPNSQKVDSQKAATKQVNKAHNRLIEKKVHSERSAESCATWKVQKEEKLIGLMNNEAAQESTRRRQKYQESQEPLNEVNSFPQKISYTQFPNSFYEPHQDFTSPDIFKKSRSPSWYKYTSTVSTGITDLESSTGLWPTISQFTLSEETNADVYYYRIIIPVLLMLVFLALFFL
Outline: as §1

cKit (h) = target: T8, cKit (h) (Homo sapiens, UniProt P10721)
T8 construct: purchased Millipore
Outline: as §1

cKit(D816V) (h) = target: T9, cKit(D816V) (h) (Homo sapiens, UniProt P10721, D816V)
T9 construct: purchased Millipore
Outline: as §1

Bmx (h) = target: T10, Bmx (h) (Homo sapiens, UniProt P51813)
T10 sequence (P51813 1-675): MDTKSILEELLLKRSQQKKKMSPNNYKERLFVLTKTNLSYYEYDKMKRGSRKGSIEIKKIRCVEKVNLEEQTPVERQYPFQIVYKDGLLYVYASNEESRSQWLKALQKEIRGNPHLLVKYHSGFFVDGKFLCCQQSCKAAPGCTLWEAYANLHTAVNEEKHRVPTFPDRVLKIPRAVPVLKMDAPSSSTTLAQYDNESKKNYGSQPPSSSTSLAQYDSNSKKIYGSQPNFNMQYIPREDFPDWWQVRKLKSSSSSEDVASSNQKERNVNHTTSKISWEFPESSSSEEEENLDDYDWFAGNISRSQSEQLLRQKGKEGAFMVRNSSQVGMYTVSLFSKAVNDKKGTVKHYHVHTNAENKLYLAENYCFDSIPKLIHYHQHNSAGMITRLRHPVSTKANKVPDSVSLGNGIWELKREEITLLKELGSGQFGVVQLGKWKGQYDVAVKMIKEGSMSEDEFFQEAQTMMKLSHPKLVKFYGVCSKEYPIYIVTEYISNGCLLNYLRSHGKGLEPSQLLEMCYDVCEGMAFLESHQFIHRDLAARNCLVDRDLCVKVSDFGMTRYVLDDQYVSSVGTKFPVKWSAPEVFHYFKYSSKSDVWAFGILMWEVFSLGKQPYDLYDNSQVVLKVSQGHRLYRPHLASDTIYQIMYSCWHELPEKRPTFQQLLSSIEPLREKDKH
Outline: as §1

EGFR(L858R) (h) = target: T11, EGFR(L858R) (h) (Homo sapiens, UniProt P00533, L858R)
T11 construct: purchased Millipore
Outline: as §1

Row | Sequence | % activity (CDK5/p25 (h)) | % activity (CDK7/cyclinH/MAT1 (h)) | % activity (CDK9/cyclin T1 (h)) | % activity (CaMKIIβ (h)) | % activity (EGFR(T790M, L858R) (h)) | % activity (FGFR1 (h)) | % activity (FGFR1(V561M) (h)) | % activity (Flt3 (h)) | % activity (IR (h), activated) | % activity (MARK1 (h)) | % activity (MuSK (h)) | % activity (Rsk2 (h)) | % activity (Rsk4 (h)) | % activity (VRK2 (h)) | % activity (cKit (h)) | % activity (cKit(D816V) (h)) | % activity (Bmx (h)) | % activity (EGFR(L858R) (h))
1 | FAKLAARLYRKALARQLGVAA [MMI-0300] | 89% | 65% | 91% | 2% | 85% | 55% | 74% | 84% | 79% | 132% | 93% | 51% | 90% | 161% | 53% | 60% | – | –
2 | HRRIKAWLKKIKALARQLGVAA (Mammalian) [MMI-0500] | 66% | 15% | 6% | 3% | 53% | 18% | – | 17% | 90% | 110% | 27% | 14% | 29% | 169% | 45% | 30% | 45% | 26%
3 | KAFAKLAARLYRKALARQLGVAA [MMI-0400] | 92% | 47% | 235% | 11% | 78% | 59% | 74% | 18% | 59% | 120% | 93% | 38% | 91% | 185% | 43% | 35% | 26% | 52%
4 | YARAAARQARAKALNRQLGVA (Mammalian) [MMI-0200] | 97% | 67% | – | 53% | 108% | 97% | 72% | 99% | – | – | – | 101% | 125% | – | 110% | 118% | 76% | 120%
